From patent US20240101667A1 (University of Texas, published 2024) come the findings set out here.

For assay [1], the target named is T1, recombinant LILRB3 (human LILRB3 extracellular domain protein) (human, UniProt O75022 24-443).
T1 construct: extracellular domain; The panning method names the 'human LILRB3 extracellular domain protein'; The Octet method says only 'recombinant LILRB3', and the antigen of the ELISA is not described; also called LILRB3-ECD
Briefly: Octet (BLI), antibody on protein A biosensors, recombinant LILRB3 in solution. The procedure: Affinity measurement and epitope binning: Affinity measurement and epitope binning were done as described previously (Gui et al., 2019). Briefly, antibody affinity was analyzed with the Octet RED96 instrument. […] ForteBio's data analysis software was used to extract association and dissociation rates assuming a 1:1 binding model. The Kd was calculated as the ratio koff/kₒₙ. […] In these epitope binning assays, primary antibodies (40 μg/ml) were loaded onto protein A biosensors, and remaining Fc-binding sites on the sensor were blocked with a human non-targeting IgG (200 μg/ml). […] Raw data were processed using ForteBio's Data Analysis Software 7.0. Antibody pairs were assessed for competitive binding.
Background: BLI is a label-free optical method that tracks binding on a fibre tip over time.

In assay [2] the target is FLAG-cFLIP (exogenous, expressed in 293T cells) (human, UniProt O15519 1-480). Kind of assay: co-immunoprecipitation of FLAG-cFLIP with hFc-tagged LILRB3 constructs in 293T cells (FIG. 5e). The source says: (§1) Western blotting and co-immunoprecipitation. Cells were lysed with RIPA buffer containing protease inhibitor (Roche Diagnostic). Samples were mixed with 2×SDS loading buffer and separated by SDS-PAGE. After transfer to nitrocellulose membranes, the protein was detected with specific primary antibodies and HRP-conjugated secondary antibodies. […] For immunoprecipitation, cells were lysed with Pierce IP Lysis Buffer (Thermo Fisher Scientific, 87787). […] Dynabeads protein A (Thermo Fisher Scientific, 10001D) was used in all co-immunoprecipitation.

Assay [3] concerns the target T2, LILRB3 with amino acids 509-511 mutated from QEE to AAA (human, UniProt O75022 24-631).
T2 construct: also called B3 AAA mutant; not shown: hFc tag, per the general co-immunoprecipitation method
Briefly: co-immunoprecipitation in 293T cells.
Excerpt: as §1

The target in assay [4] is T3, LILRB3 with deletion of amino acids 505-515 (human, UniProt O75022 24-631).
T3 construct: Deletion mutant; not shown: hFc tag, per the general co-immunoprecipitation method
Briefly: co-immunoprecipitation in 293T cells.
Excerpt: as §1

Sequence of FLAG-cFLIP (exogenous, expressed in 293T cells) (O15519 whole entry): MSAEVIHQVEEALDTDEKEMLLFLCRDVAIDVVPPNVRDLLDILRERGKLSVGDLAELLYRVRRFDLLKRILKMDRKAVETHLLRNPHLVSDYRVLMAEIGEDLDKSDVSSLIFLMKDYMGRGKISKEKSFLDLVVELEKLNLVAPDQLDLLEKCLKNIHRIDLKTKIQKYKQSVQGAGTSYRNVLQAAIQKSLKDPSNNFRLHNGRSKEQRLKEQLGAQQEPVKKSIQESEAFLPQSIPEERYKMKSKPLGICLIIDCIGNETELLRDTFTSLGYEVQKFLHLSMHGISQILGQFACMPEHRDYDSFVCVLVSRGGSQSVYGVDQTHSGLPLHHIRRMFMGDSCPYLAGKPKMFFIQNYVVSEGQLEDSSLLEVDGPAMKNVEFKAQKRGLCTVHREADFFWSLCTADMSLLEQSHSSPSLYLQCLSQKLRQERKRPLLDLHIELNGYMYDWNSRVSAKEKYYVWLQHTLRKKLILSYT

B1: anti-LILRB3 IgG #26 (antibody, V domains shown)
VH: QVQMVESGGGLVKPGGSLRLSCAASGFTFSDHYLSWIRQAPGKGLEWVSYIDLSGSTVYYGDSVKGRFTISRDNARNSVYLQMNSLRAEDTAVYYCARGHYGLDVWGQGTMVTVSS
VL: NIQMTQSPSTLSASVGDRVTISCRASQSIGTWLAWYQQKPGKAPQLLIYKASSLHSGVPSRFSGSGSGTEFTLTISSLQPDDFATYYCQQYNLYSRTFGQGTKVEIK
notes: Fully human IgG; also called B3-26
Regarding B1, in assay [1], the binding result is recorded as “binds”.

B2: B3ICDhFc (LILRB3 intracellular domain fused to hFc at C-terminus) (Fc fusion)
chain: RRQRHSKHRTSDQRKTDFQRPAGAAETEPKDRGLLRRSSPAADVQEENLYAAVKDTQSEDRVELDSQSPHDEDPQAVTYAPVKHSSPRREMASPPSSLSGEFLDTKDRQVEEDRQMDTEAAASEASQDVTYAQLHSLTLRRKATEPPPSQEGEPPAEPSIYATLAIH
notes: domain: intracellular domain; also called B3ICD fused to human Fc; intracellular domain of LILRB3 alone; not shown: hFc (human Fc)
In the case of B2, in assay [2], the binding result is “no binding”.

B3: HA-TRAF2 (exogenous, expressed in 293T cells) (other, human, UniProt Q12933 1-501, looked up)
chain: MAAASVTPPGSLELLQPGFSKTLLGTKLEAKYLCSACRNVLRRPFQAQCGHRYCSFCLASILSSGPQNCAACVHEGIYEEGISILESSSAFPDNAARREVESLPAVCPSDGCTWKGTLKEYESCHEGRCPLMLTECPACKGLVRLGEKERHLEHECPERSLSCRHCRAPCCGADVKAHHEVCPKFPLTCDGCGKKKIPREKFQDHVKTCGKCRVPCRFHAIGCLETVEGEKQQEHEVQWLREHLAMLLSSVLEAKPLLGDQSHAGSELLQRCESLEKKTATFENIVCVLNREVERVAMTAEACSRQHRLDQDKIEALSSKVQQLERSIGLKDLAMADLEQKVLEMEASTYDGVFIWKISDFARKRQEAVAGRIPAIFSPAFYTSRYGYKMCLRIYLNGDGTGRGTHLSLFFVVMKGPNDALLRWPFNQKVTLMLLDQNNREHVIDAFRPDVTSSSFQRPVNDMNIASGCPLFCPVSKMEAKNSYVRDDAIFIKAIVDLTGL
notes: also called exogenous HA-TRAF2; not shown: HA tag
On to B3, for which the binding result in assay [3] and in assay [4] was “no binding” in each case.

B4: anti-LILRB3 IgG #1 (antibody, V domains shown)
VH: EVQLVESGGGVVQPGRSLRLSCAASGFTFSSYGMHWVRQAPGKGLEWVAFIRYDGSNKYYADSVKGRFTISRDNSKNTLYLQMNSLRAEDTAVYYCAKAGFSGWYYYGMDVWGQGTMVTVSS
VL: DIVMTQSPSSLSASVGDRLTITCRASQSISTYLNWYQQKPGKAPKLLIYGASSLQSGVPSRFSGSGSGTDFTLTISSLQPEDFATYFCQQSYGLPLTFGGGTKVDIK
notes: Fully human IgG from scFv phage display; also called anti-LILRB3 #1; B3-1
In the case of B4, in assay [1], the binding result is “binds”.

B5: anti-LILRB3 antibody #32 (antibody, V domains shown)
VH: QVQLVQSGAEVKKPGSSVKVSCKASGGTFSSYAISWVRQAPGQGLEWMGGIIPIFGTANYAQKFQGRVTITADESTSTAYMELSSLRSEDTAVYYCARGWNWFDPWGQGTMVIVSS
VL: QSVLTQPPSVSADPGQKVTISCSGSSSNIGKNYVSWYQQLPGTAPKLLIYDDNRRLSGTPDRFSGSKSGTSATLGITGLQTGDEADYYCGAWDSSLSAYVFGTGTTVTVL
notes: Fully human IgG; Tied to clone 'B3-32' only by the clone number; also called B3-32
As for B5, in assay [1], the binding result is recorded as “binds”.
